Laboratory results from patent US20160362495A1 (E R SQUIBB AND SONS L L C, published 2016).

Assays:
[1] = target: T1, recombinant human PD-L1 fusion protein (human PD-L1 fused to an immunoglobulin Fc region) (human, UniProt Q9NZQ7 19-238); experiment: SPR (Biacore), PD-L1 fusion protein amine-coupled to CM5 chip, antibody flowed at 133 nM, 1:1 Langmuir fit
T1 construct: extracellular domain; also called PD-L1-Fc fusion protein; PD-L1-Ig; not shown: immunoglobulin Fc region
Method: Anti-PD-L1 antibodies were characterized for affinities and binding kinetics by Biacore analysis (Biacore AB, Uppsala, Sweden). […] The antigen-antibody association kinetics was followed for 1 minute and the dissociation kinetics was followed for 1 minute. The association and dissociation curves were fit to a 1:1 Langmuir binding model using BIAevaluation software (Biacore AB). To minimize the effects of avidity in the estimation of the binding constants, only the initial segment of data corresponding to association and dissociation phases were used for fitting.

[2] = target: T2, human PD-L1 expressed at the cell surface (human, UniProt Q9NZQ7 19-290); experiment: flow cytometry titration on IFN-gamma-treated ES-2 cells, anti-human kappa detection (sheet title), FL1 GMFI
T2 construct: whole, on cells; also called cell surface PD-L1; hPD-L1

[3] = target: T2, human PD-L1 expressed at the cell …; experiment: flow cytometry blocking assay: antibody titrated on IFN-gamma-treated ES-2 cells, then PD-1-hFc at 2 ug/mL, detected with biotinylated 26D5 and streptavidin-PE (FL2 GMFI)
Method: The blocking was compared to isotype control antibody.
ES-2 cells were induced overnight with 500 IU/mL of hIFN-γ to upregulate hPD-L1 cell surface expression. Induced cells were suspended in FACS buffer. […] Finally, bound 26D5 antibody was detected by addition of streptavidin-PE conjugate at 4° C. for 30 minutes, followed by two washes to remove unbound conjugate. Flow cytometric analysis was performed using a FACScalibur flow cytometer (Becton Dickinson, San lose, Calif.). The results are depicted in FIG. 46.

[4] = target: T3, cynomolgus monkey PD-L1 expressed on the surface of activated T cells (cynomolgus monkey, UniProt G7PSE7 19-290); experiment: flow cytometry titration on activated cynomolgus PBMC, FITC anti-human kappa detection, FL1 GMFI
T3 construct: also called cynomolgus monkey cell surface PD-L1; stimulated cynomolgus PBMC
Method: (§1) Anti-PD-L1 antibodies were tested by flow cytometry for binding to activated human or cynomolgus monkey T cells expressing PD-L1 on their surface.
(§2) Human or monkey T cells were activated by anti-CD3 antibody to induce PD-L1 expression prior to binding with a human anti-PD-L1 monoclonal antibody. […] An isotype control antibody was used as a negative control. The cells were washed and binding was detected with a FITC-labeled antihuman Ig-kappa light chain Ab. Flow cytometric analyses were performed using a FACScalibur flow cytometer (Becton Dickinson, San Jose, Calif.).

[5] = target: T1, recombinant human PD-L1 fusion protein …; experiment: ELISA on hPD-L1/Fc, HRP goat anti-human IgG (kappa chain-specific) detection
Method: Standard ELISA procedures were performed. The anti-PD-L1 human monoclonal antibodies were added at different concentrations. Goat-anti-human IgG (kappa chain-specific) polyclonal antibody conjugated with horseradish peroxidase (HRP) was used as secondary antibody.

[6] = target: T2, human PD-L1 expressed at the cell …; experiment: flow cytometry titration on CHO cells transfected with human PD-L1, FITC-labeled anti-human IgG detection
Excerpt: Chinese hamster ovary (CHO) cell lines that express recombinant human PD-L1 at the cell surface were developed and used to determine the specificity of PD-L1 human monoclonal antibodies by flow cytometry. CHO cells were transfected with expression plasmids containing full length cDNA encoding transmembrane forms of PD-L1. […] The cells were washed and binding was detected with a FITC-labeled anti-human IgG Ab. Flow cytometric analyses were preformed using a FACScan flow cytometry (Becton Dickinson, San Jose, Calif.). The binding was compared to the parent CHO cell line. […] Binding was also tested using varying concentrations of anti-PD-L1 antibody.

[7] = target: T2, human PD-L1 expressed at the cell …; experiment: flow cytometry titration on stimulated human CD4+ T cells, FITC anti-human kappa detection, FL1 GMFI
Method: as §1, §2

[8] = target: T1, recombinant human PD-L1 fusion protein …; experiment: Biacore equilibrium binding, 25 C
[9] = target: T1, recombinant human PD-L1 fusion protein …; experiment: flow cytometry blocking assay: antibody titrated against FITC-labeled PD-L1-Fc binding to CHO cells expressing human PD-1
Method: Anti-PD-L1 human monoclonal antibodies were tested for the ability to block binding of the ligand PD-L1 to PD-1 expressed on transfected CHO cells by using a cell cytometry assay.
PD-1 expressing CHO cells were suspended in FACS buffer (PBS with 4% fetal calf serum). […] Flow cytometric analyses were performed using a FACScalibur flow cytometer (Becton Dickinson, San Jose, Calif.).

[10] = target: T1, recombinant human PD-L1 fusion protein …; experiment: Biacore equilibrium binding, 37 C

T3 sequence (G7PSE7 entry or part of it limits assumed): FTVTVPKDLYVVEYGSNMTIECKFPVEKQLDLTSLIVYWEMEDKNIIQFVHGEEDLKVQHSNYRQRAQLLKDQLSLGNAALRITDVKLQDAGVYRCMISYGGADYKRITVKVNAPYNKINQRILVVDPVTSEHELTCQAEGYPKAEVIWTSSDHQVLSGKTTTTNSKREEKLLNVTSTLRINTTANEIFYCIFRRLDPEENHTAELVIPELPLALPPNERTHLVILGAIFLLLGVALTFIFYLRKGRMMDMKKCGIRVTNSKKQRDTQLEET
T2 sequence (Q9NZQ7 19-290): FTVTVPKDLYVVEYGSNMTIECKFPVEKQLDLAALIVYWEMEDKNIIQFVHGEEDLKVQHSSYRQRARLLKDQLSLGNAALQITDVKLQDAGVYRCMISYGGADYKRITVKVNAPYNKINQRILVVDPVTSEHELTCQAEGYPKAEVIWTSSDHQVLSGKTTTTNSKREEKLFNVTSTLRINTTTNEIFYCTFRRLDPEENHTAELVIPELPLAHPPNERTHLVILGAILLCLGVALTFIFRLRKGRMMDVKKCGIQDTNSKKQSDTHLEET
T1 sequence (Q9NZQ7 19-238): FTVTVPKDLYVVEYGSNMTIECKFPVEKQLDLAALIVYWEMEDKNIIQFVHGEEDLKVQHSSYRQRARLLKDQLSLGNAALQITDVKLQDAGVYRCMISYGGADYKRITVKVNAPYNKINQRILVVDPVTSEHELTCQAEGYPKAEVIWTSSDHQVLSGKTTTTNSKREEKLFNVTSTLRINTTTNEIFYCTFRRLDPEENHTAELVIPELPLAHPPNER

| Binder | Kd [1] [nM] | EC50 [2] [nM] | IC50 [3] [nM] | EC50 [4] [nM] | EC50 (read off the curve) [5] [µg/mL] | EC50 (read off the curve) [6] [µg/mL] | EC50 [7] [nM] | koff [1] [s⁻¹] | kon [1] [M⁻¹ s⁻¹] | Kd [8] [nM] | IC50 (read off the curve) [9] [µg/mL] | Kd [10] [nM] |
| --- | --- | --- | --- | --- | --- | --- | --- | --- | --- | --- | --- | --- |
| 3G10 human monoclonal antibody (antibody, V domains shown, Fully human IgG kappa antibody from a KM-mouse hybridoma; also called HuMAb 3G10) VH: QVQLVQSGAEVKKPGASVKVSCKASGYTFTDYGFSWVRQAPGQGLEWMGWITAYNGNTNYAQKLQGRVTMTTDTSTSTVYMELRSLRSDDTAVYYCARDYFYGMDVWGQGTTVTVSS VL: EIVLTQSPATLSLSPGERATLSCRASQSVSSYLVWYQQKPGQAPRLLIYDASNRATGIPARFSGSGSGTDFTLTISSLEPEDFAVYYCQQRSNWPRTFGQGTKVEIK | 3.39 | 0.42 | 0.47 | 0.38 | ~0.1 | ~0.3 | 0.23 |  |  |  |  |  |
| 10A5 human monoclonal antibody (antibody, V domains shown, Fully human IgG kappa antibody from a KM-mouse hybridoma; also called HuMAb 10A5) VH: QVQLVQSGAEVKKPGASVKVSCKASGYTFTSYDVHWVRQAPGQRLEWMGWLHADTGITKFSQKFQGRVTITRDTSASTAYMELSSLRSEDTAVYYCARERIQLWFDYWGQGTLVTVSS VL: DIQMTQSPSSLSASVGDRVTITCRASQGISSWLAWYQQKPEKAPKSLIYAASSLQSGVPSRFSGSGSGTDFTLTISSLQPEDFATYYCQQYNSYPYTFGQGTKLEIK | 1.45 | 0.38 | 0.29 |  | ~0.08 | ~0.3 |  | 0.000372 | 258000 | 0.57 | ~3 | 2.41 |
| 1B12 human monoclonal antibody (antibody, V domains shown, Fully human IgG kappa antibody from a KM-mouse hybridoma) VH: QVQLVQSGAEVKKPGSSVKVSCKTSGDTFSSYAISWVRQAPGQGLEWMGGIIPIFGRAHYAQKFQGRVTITADESTSTAYMELSSLRSEDTAVYFCARKFHFVSGSPFGMDVWGQGTTVTVSS VL: not shown |  | 0.23 | 0.21 | 0.15 |  |  | 0.06 |  |  |  |  | 1.38 |
| 7H1 human monoclonal antibody (antibody, V domains shown, Fully human IgG kappa antibody from a KM-mouse hybridoma) VH: QVQLVQSGAEVKKPGSSVKVSCKTSGGTFSSYAISWVRQAPGQGLEWMGGIIPIFGKAHYAQKFQGRVTITADESTTTAYMELSSLRSEDTAVYYCARKYDYVSGSPFGMDVWGQGTTVTVSS VL: not shown |  |  |  |  |  |  |  |  |  |  |  | 2.15 |

Further lines, results first:

| Kd [1] [nM] | EC50 [2] [nM] | IC50 [3] [nM] | EC50 [4] [nM] | EC50 (read off the curve) [5] [µg/mL] | EC50 (read off the curve) [6] [µg/mL] | EC50 [7] [nM] | koff [1] [s⁻¹] | kon [1] [M⁻¹ s⁻¹] | Kd [8] [nM] | IC50 (read off the curve) [9] [µg/mL] | Kd [10] [nM] | Binder |
| --- | --- | --- | --- | --- | --- | --- | --- | --- | --- | --- | --- | --- |
|  |  |  |  |  |  |  |  |  | 5.48 |  | 5.93 | 10H10 human monoclonal antibody (antibody, V domains shown, Fully human IgG kappa antibody from a KM-mouse hybridoma) VH: EVQLVESGGGLVQPGRSLRLSCAVSGFTFDDYVVHWVRQAPGKGLEWVSGISGNSGNIGYADSVKGRFTISRDNAKNSLYLQMNSLRAEDTALYYCAVPFDYWGQGTLVTVSS VL: DIQMTQSPSSLSASVGDRVTITCRASQGISSWLAWYQQKPEKAPKSLIYAASSLQSGVPSRFSGSGSGTDFTLTISSLQPEDFATYYCQQYNSYPYTFGQGTKLEIK |
|  |  |  | 0.1 |  |  |  |  |  |  |  |  | 12A4 human monoclonal antibody (antibody, V domains shown, Fully human IgG kappa antibody from a KM-mouse hybridoma; also called HuMAb 12A4) VH: QVQLVQSGAEVKKPGSSVKVSCKTSGDTFSTYAISWVRQAPGQGLEWMGGIIPIFGKAHYAQKFQGRVTITADESTSTAYMELSSLRSEDTAVYFCARKFHFVSGSPFGMDVWGQGTTVTVSS VL: not shown |
